Target: the molecule itself
Test: crystal structure; sitting drop, 0.1 M bis-Tris pH 5.5, 2.0 M ammonium sulfate, 19°C; free YdaT, a tetramer in the asymmetric unit, 2.4 Å

B1: YdaT from the cryptic prophage CP-933P of Escherichia coli O157:H7 (wild-type YdaT) (natural protein)
chain: KIKHEHIRMAMNVWAHPDGEKVPAAKITKAYFELGMTFPELYDDSHPEALARNTQKIFRWLDKDTPDAVEKMQALLPAIEKAMPPLLVARMRSHSSEYYREIVERRDRLVKDVDDFVASAVVLYDQMNRGGPAGNAVVMH
notes: YdaT, E. coli O157:H7 prophage CP-933P, open reading frame in pET-28b; also called CP-933P YdaT; full-length protein
stoichiometry N: 4
